Results taken from patent US20220033501A1 (SHANGHAI PHARMAEXPLORER, published 2022).

What was measured:
[1] = target: T1, human TIM-3 on CHOK1 stable cell line (CHOK1-hTIM-3) (human, UniProt Q8TDQ0 22-301); experiment: FACS, CHOK1-hTIM-3 cells, 40 nM antibody
T1 sequence: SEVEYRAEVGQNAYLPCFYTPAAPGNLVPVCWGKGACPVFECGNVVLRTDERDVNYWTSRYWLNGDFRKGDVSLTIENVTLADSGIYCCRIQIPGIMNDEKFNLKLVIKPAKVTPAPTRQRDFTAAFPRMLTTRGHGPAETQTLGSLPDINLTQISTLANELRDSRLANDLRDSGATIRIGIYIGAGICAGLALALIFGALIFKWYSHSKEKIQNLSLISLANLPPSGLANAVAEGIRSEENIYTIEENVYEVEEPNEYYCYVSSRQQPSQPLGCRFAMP

[2] = target: T2, monkey TIM-3 on CHOK1 stable cell line (CHOK1-cTIM-3) (monkey); experiment: FACS, CHOK1-cTIM-3 cells, 0.013 nM antibody
T2 chain: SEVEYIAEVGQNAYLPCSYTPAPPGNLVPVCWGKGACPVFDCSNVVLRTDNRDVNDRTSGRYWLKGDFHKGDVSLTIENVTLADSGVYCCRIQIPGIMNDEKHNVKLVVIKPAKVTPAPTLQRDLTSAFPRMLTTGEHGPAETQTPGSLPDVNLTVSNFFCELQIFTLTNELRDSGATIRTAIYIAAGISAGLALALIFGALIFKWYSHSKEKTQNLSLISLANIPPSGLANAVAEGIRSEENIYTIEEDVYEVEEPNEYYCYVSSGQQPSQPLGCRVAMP

[3] = target: T3, murine TIM-3 extracellular domain protein with hFc tag (mTIM-3-hFc) (mouse, UniProt Q8VIM0 29-191); experiment: ELISA, coated mouse TIM-3 ECD protein, 6.6667 nM antibody
T3 construct: also called mouse TIM-3 extracellular domain protein; not shown: human IgG Fc fragment (hFc) of the pCpC vector
T3 chain: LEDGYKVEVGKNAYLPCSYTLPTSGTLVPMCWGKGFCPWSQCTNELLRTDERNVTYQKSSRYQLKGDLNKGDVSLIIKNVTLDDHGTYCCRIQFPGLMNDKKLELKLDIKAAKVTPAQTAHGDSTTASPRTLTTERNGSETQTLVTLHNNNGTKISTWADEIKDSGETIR

[4] = target: T3, murine TIM-3 extracellular domain …; experiment: ELISA, coated mouse TIM-3 ECD protein, 66.667 nM antibody
[5] = target: T4, monkey TIM-3 extracellular domain protein with hFc tag (cTIM-3-hFc) (monkey); experiment: ELISA, coated monkey TIM-3 ECD protein, 0.0667 nM antibody
T4 construct: not shown: human IgG Fc fragment (hFc) of the pCpC vector
T4 chain: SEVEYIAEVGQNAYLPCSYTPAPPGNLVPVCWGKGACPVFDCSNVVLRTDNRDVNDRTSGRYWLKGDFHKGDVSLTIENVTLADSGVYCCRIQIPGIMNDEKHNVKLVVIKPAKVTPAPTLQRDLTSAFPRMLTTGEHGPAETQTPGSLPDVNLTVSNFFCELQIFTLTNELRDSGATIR

[6] = target: T4, monkey TIM-3 extracellular domain …; experiment: ELISA, coated monkey TIM-3 ECD protein, 66.667 nM antibody

B1: 18D2H2 fully human TIM-3 antibody (human IgG4, kappa) (antibody, V domains shown)
VH: EVQLVESGGDLVQPGGSLRLSCAASGFTFSTYWMTWVRQAPGRGLEWVANIKQDGSAKYYVDSVKGRFTLSRDDAKNSLYLQMNSLRAEDTAVYYCARGSNWFDYWGQGTLVTVSS
VL: ETVMTQSPATLSVSPGERATLSCRANQNVYSNLAWYQQKPGQAPRLLIYDASTRATGFPARFSGSGSGTEFTLTISSLQSEDFAVYYCQQYNNWPLTFGGGTKVEIK
[1]
  Mean fluorescence intensity: 257
[2]
  Mean fluorescence intensity: 14.8
[3]
  OD450: 0.31
[4]
  OD450: 0.81
[5]
  OD450: 1.56
[6]
  OD450: 3.27

B2: 34B6D8 fully human TIM-3 antibody (human IgG4, kappa) (antibody, V domains shown)
VH: EVQLVESGGGLVQPGGSLRLSCAASGFTFSTYWMTWVRQAPGKRLEWVANIKQGGGDKYYVDSVKGRFTISTDNAKNSLYLQMNSLRAEDTAVYYCARGSNWFDPWGQGTLVTVSS
VL: EIVMTQSPATLSMSPGERATLSCRASQSVYDNLAWYQQKPGQAPRLLIYGASTRATGIPARFSGSGSGTEFTLTISSLQSEDFALYYCQQYTHWPITFGQGTRLEIK
[1]
  Mean fluorescence intensity: 221
[2]
  Mean fluorescence intensity: 12.7
[3]
  OD450: 0.44
[4]
  OD450: 1.38
[5]
  OD450: 1.71
[6]
  OD450: 3.39

B3: 39E5H1 fully human TIM-3 antibody (human IgG4, kappa) (antibody, V domains shown)
VH: EVQLVESGGGLVQPGGSLRLSCAASGFTFSSYWMSWVRQAPGKGLEWVANIKRGGSERYYVDSVKGRFTISGDNAKNSVYLQMNSLRAEDTAVYYCARGSNWFDPWGQGTLVTVSS
VL: ETVMTQSPAILSVSPGERATLSCRASQSVYSNLAWYQQKLGQAPRLLIYDASTRATGIPARFSGSGSGTEFTLTISSLQSEDFAVYYCQQYNNWPITFGQGTRLEIK
[1]
  Mean fluorescence intensity: 264
[2]
  Mean fluorescence intensity: 14.8
[3]
  OD450: 0.41
[4]
  OD450: 1.28
[5]
  OD450: 1.37
[6]
  OD450: 3.38
